Biological target: T1, hADM (Homo sapiens, UniProt P35318)
T1 construct: comprises the amino acids 95 to 146 of pre-proADM; host or cells: added to human citrate plasma
T1 sequence (P35318 95-146): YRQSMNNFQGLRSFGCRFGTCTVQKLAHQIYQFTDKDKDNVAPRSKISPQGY
Assay: Stability of human Adrenomedullin in human citrate plasma (hADM immunoassay)
Format: in vitro ADME
Conditions: 24° C., hADM 10 nM, NT-H 100 μg/ml
Experimental: The stabilizing effect of human ADM by human ADM antibodies was tested using a hADM immunoassay.
The technology used was a sandwich coated tube luminescence immunoassay, based on Acridinium ester labelling.
The final concentration was approx. 800.000 relative light units (RLU) of labelled compound (approx. 20 ng labeled antibody) per 200 μL.
After blocking with 5% bovine serum albumine, the tubes were washed with PBS, pH 7.4 and vacuum dried.
The assay was calibrated, using dilutions of hADM
(BACHEM AG, Switzerland) in 250 mmol/L NaCl, 2 g/L Triton X-100, 50 g/L Bovine Serum Albumin, 20 tabs/L Protease Inhibitor Cocktail (Roche Diagnostics AG, Switzerland))
Unbound tracer was removed by washing 5 times (each 1 ml) with washing solution (20 mM PBS, pH 7.4, 0.1% Triton X-100).
Human ADM was diluted in human Citrate plasma (final concentration 10 nM) and incubated at 24° C. At selected time points, the degradation of hADM was stopped by freezing at −20° C. […] The remaining hADM was quantified by using the hADM immunoassay described above.

B1: NT-H: murine monoclonal antibody raised against human ADM region 1-21 (SEQ ID: 15) (antibody, V domains shown)
VH: QVQLQQSGAELMKPGASVKISCKATGYTFSRYWIEWVKQRPGHGLEWIGEILPGSGSTNYNEKFKGKATITADTSSNTAYMQLSSLTSEDSAVYYCTEGYEYDGFDYWGQGTTLTVSS
VL: DVLLSQTPLSLPVSLGDQATISCRSSQSIVYSNGNTYLEWYLQKPGQSPKLLIYRVSNRFSGVPDRFSGSGSGTDFTLKISRVEAEDLGVYYCFQGSHIPYTFGGGTKLEIK
- half life of hADM in the presence of NT-H: 18.3 h
